Reference: patent US20140011728A1

Target: IL-1 receptor expressed by INS-1 cells (rat (INS-1 cells are derived from a rat insulinoma)) (UniProt Q02955)

IL-1β (ligand)
NO release: 6.56 µM
